This note sets out measurements from article PMC2812517 (The Journal of Cell Biology, 2010).

The target of this assay is GST-LC3B (UniProt Q9GZQ8 1-120). Put plainly: pull-down.

B1: MBP-FYCO1(863–1,478) (domain or fragment)
chain: AQQREEELRALQEELSQAKCSSEEAQLEHAELQEQLHRANTDTAELGIQVCALTVEKERVEEALACAVQELQDAKEAASREREGLERQVAGLQQEKESLQEKLKAAKAAAGSLPGLQAQLAQAEQRAQSLQEAAHQELNTLKFQLSAEIMDYQSRLKNAGEECKSLRGQLEEQGRQLQAAEEAVEKLKATQADMGEKLSCTSNHLAECQAAMLRKDKEGAALREDLERTQKELEKATTKIQEYYNKLCQEVTNRERNDQKMLADLDDLNRTKKYLEERLIELLRDKDALWQKSDALEFQQKLSAEERWLGDTEANHCLDCKREFSWMVRRHHCRICGRIFCYYCCNNYVLSKHGGKKERCCRACFQKLSEGPGSPDSSGSGTSQGEPSPALSPASPGPQATGGQGANTDYRPPDDAVFDIITDEELCQIQESGSSLPETPTETDSLDPNAAEQDTTSTSLTPEDTEDMPVGQDSEICLLKSGELMIKVPLTVDEIASFGEGSRELFVRSSTYSLIPITVAEAGLTISWVFSSDPKSISFSVVFQEAEDTPLDQCKVLIPTTRCNSHKENIQGQLKVRTPGIYMLIFDNTFSRFVSKKVFYHLTVDRPVIYDGSDFL
For the molecule B1, the binding result was “binds”.
